The data set is described as follows: self-splicing fitness, log relative to wild type (ln ratio); higher = more splicing; Tetrahymena group I intron in knt gene, E. coli kanamycin selection, DiMSum; sequences stand for … in CUCUCU…GGAGGGAAAAGUUAUCAGGCAUGCACCUGGUAGCUAGUCUUUAAACCAAUAGAUUGCAUCGGUUUAAAAGGCAAGACCGUCAAAUUGCGGGAAAGGGGUCAACAGCCGUUCAGUACCAAGUCUCAGGGGAAACUUUGAGAUGGCCUUGCAAAGGGUAUGGUAAUAAGCUGACGGACAUGGUCCUAACCACGCAGCCAAGUCCUAAGUCAACAGAUCUUCUGUUGAUAUGGAUGCAGUUCACAGACUAAAUGUCGGUCGGGGAAGAUGUAUUCUUCUCAUAAGAUAUAGUCGGACCUCUCCUUAAUGGGAGCUAGCGGAUGAAGUGAUGCAACACUGGAGCCGCUGGGAACUAAUUUGUAUGCGAAAGUAUAUUGAUUAGUUUUGGAGUACUCGUGGUCG
The procedure, abridged: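 Fitness was computed with DiMSum as the error-weighted combination of replicate fold changes, kanamycin versus none, each normalised to wild type. The library randomised all eight intron nucleotides of the P1ex region, with the intron placed in the knt kanamycin-resistance gene on pET-22b(+) in E. coli BL21(DE3). Six replicate transformations were grown overnight at 37°C or 30°C on LB agar with or without 25 μg/mL kanamycin, plus 100 μg/mL carbenicillin, 50 μM IPTG and 0.2% rhamnose. Pooled colonies were amplicon-sequenced on an Illumina HiSeq 2500.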

± gives the uncertainty stated by the source.

With CCCAAGCAAUAUUACGAAUG, the “self-splicing fitness (ln)” value by setting is: (30 °C) -3.88 ± 0.22; (37 °C) -2.8 ± 0.18.
CCCAAGCAAUAUUACGACCU: the “self-splicing fitness (ln)” value was -3.38 ± 0.26 (30 °C) and -2.44 ± 0.25 (37 °C).
On the same counts, the results for CCCAAGCAAUAUUACGCAAU are -4.46 ± 0.31 and -1.16 ± 0.17.
For the sequence CCCAAGCAAUAUUACGCACC, the “self-splicing fitness (ln)” value (37 °C) is -2.31 ± 0.33.
On to CCCAAGCAAUAUUACGCAGA, for which the “self-splicing fitness (ln)” value (30 °C) was -2.74 ± 0.21 and the “self-splicing fitness (ln)” value (37 °C) is -2.72 ± 0.14.
For the sequence CCCAAGCAAUAUUACGCAUC, the “self-splicing fitness (ln)” value (37 °C) is -1.32 ± 0.21.
CCCAAGCAAUAUUACGCGAU: the “self-splicing fitness (ln)” value was -3.93 ± 0.21 (30 °C) and -2.5 ± 0.19 (37 °C).
Regarding CCCAAGCAAUAUUACGCGCC, under “37 °C”, the “self-splicing fitness (ln)” value was -1.59 ± 0.34.
With CCCAAGCAAUAUUACGCGGA, the “self-splicing fitness (ln)” value is, setting by setting: (30 °C) -1.6 ± 0.093; (37 °C) -0.459 ± 0.097.
Turning to CCCAAGCAAUAUUACGCUAC, the “self-splicing fitness (ln)” value reads like this: (30 °C) -4.17 ± 0.39; (37 °C) -3.04 ± 0.38.
The like results for CCCAAGCAAUAUUACGGAAU were, in that order, -3.88 ± 0.26 and -2.94 ± 0.22.
Consider CCCAAGCAAUAUUACGGGAU, for which the “self-splicing fitness (ln)” value (30 °C) is -3.41 ± 0.096 and the “self-splicing fitness (ln)” value (37 °C) was -2.47 ± 0.12.
The like results for CCCAAGCAAUAUUACGGGUG were, in that order, -3.36 ± 0.093 and -1.79 ± 0.077.
The like results for CCCAAGCAAUAUUACGGUGC were, in that order, -3.6 ± 0.27 and -2.26 ± 0.22.
The like results for CCCAAGCAAUAUUACGGUGG were, in that order, -3.69 ± 0.15 and -2.71 ± 0.15.
For CCCAAGCAAUAUUACGUAAC, the “self-splicing fitness (ln)” value (30 °C) is -3.6 ± 0.18 and the “self-splicing fitness (ln)” value (37 °C) was -2.52 ± 0.21.
In the case of CCCAAGCAAUAUUACGUAGA, the “self-splicing fitness (ln)” value (30 °C) was -3.94 ± 0.17 and the “self-splicing fitness (ln)” value (37 °C) is -3.16 ± 0.18.
On to CCCAAGCAAUAUUACGUCAG, for which the “self-splicing fitness (ln)” value is, setting by setting: (30 °C) -4.12 ± 0.17; (37 °C) -1.97 ± 0.13.
CCCAAGCAAUAUUACGUCAU: the “self-splicing fitness (ln)” value (30 °C) was -2.95 ± 0.14 and the “self-splicing fitness (ln)” value (37 °C) was -2.74 ± 0.13.
The like results for CCCAAGCAAUAUUACGUCCU were, in that order, -3.99 ± 0.3 and -2.93 ± 0.29.
For CCCAAGCAAUAUUACGUCGG, the “self-splicing fitness (ln)” value reads like this: (30 °C) -3.63 ± 0.12; (37 °C) -2.51 ± 0.14.
The like results for CCCAAGCAAUAUUACGUUAA were, in that order, -3.68 ± 0.17 and -2.62 ± 0.14.
On the same counts, the results for CCCAAGCAAUAUUACGUUAC are -4.13 ± 0.15 and -2.37 ± 0.13.
On the same counts, the results for CCCAAGCAAUAUUACGUUGU are -3.3 ± 0.095 and -2.43 ± 0.11.
With CCCCAGCAAUAUUACGAAAA, the “self-splicing fitness (ln)” value is -3.6 ± 0.26 (30 °C) and -2.57 ± 0.26 (37 °C).
For the sequence CCCCAGCAAUAUUACGAAGG, the “self-splicing fitness (ln)” value is, setting by setting: (30 °C) -4.06 ± 0.17; (37 °C) -2.51 ± 0.15.
On the same counts, the results for CCCCAGCAAUAUUACGAAUG are -4.11 ± 0.21 and -2.3 ± 0.15.
On the same counts, the results for CCCCAGCAAUAUUACGACGU are -3.45 ± 0.21 and -2.9 ± 0.19.
The like results for CCCCAGCAAUAUUACGAUAC were, in that order, -3.82 ± 0.27 and -2.85 ± 0.28.
CCCCAGCAAUAUUACGAUUU: the “self-splicing fitness (ln)” value was -3.43 ± 0.14 (30 °C) and -3.51 ± 0.25 (37 °C).
The like results for CCCCAGCAAUAUUACGCAGG were, in that order, -3.34 ± 0.12 and -2.52 ± 0.16.
With CCCCAGCAAUAUUACGCCGA, the “self-splicing fitness (ln)” value (37 °C) was -2.04 ± 0.25.
Take CCCCAGCAAUAUUACGCGAC: the “self-splicing fitness (ln)” value reads like this: (30 °C) -3.37 ± 0.21; (37 °C) -2.49 ± 0.25.
The like results for CCCCAGCAAUAUUACGCUGC were, in that order, -3.41 ± 0.17 and -2.06 ± 0.23.
On the same counts, the results for CCCCAGCAAUAUUACGCUUC are -4.6 ± 0.32 and -2.39 ± 0.27.
On the same counts, the results for CCCCAGCAAUAUUACGGAAC are -3.83 ± 0.26 and -3.1 ± 0.22.
Consider CCCCAGCAAUAUUACGGCUA, for which the “self-splicing fitness (ln)” value is -3.77 ± 0.16 (30 °C) and -2.34 ± 0.13 (37 °C).
On the same counts, the results for CCCCAGCAAUAUUACGGGAC are -3.88 ± 0.18 and -2.12 ± 0.14.
As to CCCCAGCAAUAUUACGGGCC, the “self-splicing fitness (ln)” value was -3.27 ± 0.15 (30 °C) and -1.7 ± 0.15 (37 °C).
The like results for CCCCAGCAAUAUUACGGGUA were, in that order, -2.89 ± 0.11 and -1.25 ± 0.073.
The like results for CCCCAGCAAUAUUACGGGUU were, in that order, -3.63 ± 0.11 and -1.85 ± 0.092.
The like results for CCCCAGCAAUAUUACGGUCG were, in that order, -2.24 ± 0.068 and -1.2 ± 0.078.
In the case of CCCCAGCAAUAUUACGGUCU, the “self-splicing fitness (ln)” value reads like this: (30 °C) -3.81 ± 0.13; (37 °C) -2.73 ± 0.17.
The like results for CCCCAGCAAUAUUACGUAUA were, in that order, -4.57 ± 0.34 and -3.21 ± 0.28.
With CCCCAGCAAUAUUACGUAUC, the “self-splicing fitness (ln)” value (30 °C) was -3.88 ± 0.21 and the “self-splicing fitness (ln)” value (37 °C) is -3.84 ± 0.21.
On the same counts, the results for CCCCAGCAAUAUUACGUCAA are -3.29 ± 0.12 and -3 ± 0.16.
On the same counts, the results for CCCCAGCAAUAUUACGUCCU are -2.36 ± 0.17 and -2.14 ± 0.22.
On the same counts, the results for CCCCAGCAAUAUUACGUCUU are -3.9 ± 0.12 and -2.04 ± 0.12.
With CCCCAGCAAUAUUACGUUAA, the “self-splicing fitness (ln)” value is -3.33 ± 0.14 (30 °C) and -2.76 ± 0.13 (37 °C).
The like results for CCCCAGCAAUAUUACGUUAU were, in that order, -4.15 ± 0.15 and -3.29 ± 0.22.
Consider CCCCAGCAAUAUUACGUUUG, for which the “self-splicing fitness (ln)” value (30 °C) was -4.17 ± 0.15 and the “self-splicing fitness (ln)” value (37 °C) was -2.51 ± 0.12.
As to CCCGAGCAAUAUUACGAAAA, the “self-splicing fitness (ln)” value by setting is: (30 °C) -2.67 ± 0.46; (37 °C) -1.74 ± 0.42.
On to CCCGAGCAAUAUUACGACAA, for which the “self-splicing fitness (ln)” value reads like this: (30 °C) -2.78 ± 0.3; (37 °C) -2.85 ± 0.41.
On the same counts, the results for CCCGAGCAAUAUUACGACUU are -3.24 ± 0.26 and -3.01 ± 0.25.
The like results for CCCGAGCAAUAUUACGCAAU were, in that order, -3.57 ± 0.25 and -2.94 ± 0.29.
Take CCCGAGCAAUAUUACGCCAG: the “self-splicing fitness (ln)” value (30 °C) is -2.69 ± 0.38.
Turning to CCCGAGCAAUAUUACGCGCC, under “37 °C”, the “self-splicing fitness (ln)” value is -1.22 ± 0.35.
The same measure, in the same setting: the same measure for CCCGAGCAAUAUUACGCUUU: -1.35 ± 0.19.
In the case of CCCGAGCAAUAUUACGGACA, the “self-splicing fitness (ln)” value is, setting by setting: (30 °C) -2.72 ± 0.16; (37 °C) -1.19 ± 0.12.
As for CCCGAGCAAUAUUACGGUAA, the “self-splicing fitness (ln)” value is, setting by setting: (30 °C) -3.81 ± 0.26; (37 °C) -1.46 ± 0.16.
The like results for CCCGAGCAAUAUUACGUAAU were, in that order, -4.75 ± 0.45 and -2.63 ± 0.32.
The like results for CCCGAGCAAUAUUACGUACA were, in that order, -2.87 ± 0.19 and -2.25 ± 0.24.

Values taken from the supplement of paper PMC7877785.
